± gives the uncertainty stated by the source.
Assay: protein stability index of a GFP-peptide fusion (yeast GPS) (PSI 1-4); higher = more stable; sorted into four equal gates, so the index is relative within each strain
In short: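 The protein stability index combines read frequencies across sorting gates, each weighted by its gate number and then summed. To obtain those frequencies, a pooled yeast library of GFP fusions to tiled 17-residue yeast protein peptides, on a plasmid also expressing Cherry, was grown to mid-log phase in leucine-free medium. The cells were sorted into four equal gates by GFP/Cherry ratio before plasmid amplification by PCR and Illumina sequencing.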

Sequence | protein stability index (doa10∆) | protein stability index (pdr5∆) | protein stability index (san1∆) | protein stability index (ubr1∆)
IFQAKRNSNPENTVGLI [RPN10] | 3.17 ± 0.1 | 3.27 ± 0.087 | 2.92 ± 0.074 | 3.21 ± 0.11
NFEAVFERLVPRGTAKL [SMC3] | 2.93 ± 0.15 | 2.84 ± 0.16 |  | 2.83 ± 0.042
LGPRGVSITPGKIEKIA [SRP21] | 2.02 ± 0.065 | 2.62 ± 0.049 | 1.98 ± 0.088 | 2.41 ± 0.039
MPGMPNMPGMPKVTPQM [SRP54] | 3.06 ± 0.17 | 3.2 ± 0.21 | 2.65 ± 0.18 | 3.34 ± 0.1
EGIKETQAKRIFLQQFL [SWI1] | 2.37 ± 0.12 | 2.75 ± 0.14 | 2.74 ± 0.086 | 2.26 ± 0.066
EVTKSSHVENLEEKLYQ [YIL149C/MLP2] | 2.76 ± 0.073 | 2.97 ± 0.072 | 2.93 ± 0.052 | 2.98 ± 0.048
CSPKLPVEKVQRIAKND [DLS1] | 2.86 ± 0.29 | 3.32 ± 0.12 | 3.17 ± 0.13 | 3.4 ± 0.12
KALLFFNNEKETEKFAL [RPN12] | 3.25 ± 0.084 | 3.03 ± 0.12 | 3.31 ± 0.059 | 3.17 ± 0.083
SRMTVGKMIELISGKAG [RET1] | 3.14 ± 0.17 | 2.98 ± 0.15 | 3.05 ± 0.094 | 3.12 ± 0.13
SVINVSAQRDRRYRKRN [RPS17B] |  | 3.04 ± 0.25 | 3.23 ± 0.24 | 
KEPRLVIVTDPRSDAQA [RPS0A] | 2.56 ± 0.14 | 3.06 ± 0.087 | 2.94 ± 0.064 | 3.05 ± 0.1
KDTNDHVDKRTKIDQEA [ISW2] | 2.6 ± 0.047 | 2.62 ± 0.048 | 2.77 ± 0.051 | 2.57 ± 0.036
RSNFRVNLSQEALQYDP [SNU114] | 2.69 ± 0.074 | 2.31 ± 0.09 | 2.93 ± 0.047 | 3.1 ± 0.088
LFEQIGIRIKGKIVGFD [SME1] | 1.92 ± 0.12 | 1.85 ± 0.1 | 1.48 ± 0.2 | 1.89 ± 0.096
VLRLKPGRKYTTLGKLS [RPL16A] | 2.83 ± 0.047 | 2.94 ± 0.05 | 2.86 ± 0.082 | 3.03 ± 0.051
NHFSLSYKDSGLWGFST [COR1] | 2.96 ± 0.077 | 3.23 ± 0.073 | 3.15 ± 0.046 | 3.02 ± 0.054
LRSDIPCLSRSCTKCPQ [DIS3] | 2.89 ± 0.04 | 2.94 ± 0.04 | 2.91 ± 0.031 | 2.92 ± 0.033
EEGINKFKKEKFDIIIV [SRP54] | 2.58 ± 0.05 | 2.61 ± 0.042 | 2.92 ± 0.043 | 2.69 ± 0.057
PLVIRRYLPDGSFEDWS [RPO26] | 3.43 ± 0.18 | 3.27 ± 0.18 | 3.44 ± 0.068 | 
ASSLRFGNSLSNTVNAN [YDL088C/ASM4] | 2.81 ± 0.068 | 2.78 ± 0.075 | 2.65 ± 0.059 | 2.89 ± 0.074
HTSSSDGNNEIFTCQIM [RPN4] | 2.57 ± 0.094 | 2.89 ± 0.082 | 3.08 ± 0.064 | 2.86 ± 0.086
LNHILEKSTQLQQKHEL [YGR119C/NUP57] | 2.52 ± 0.054 | 2.91 ± 0.042 | 2.66 ± 0.034 | 2.82 ± 0.035
WVTEVLGNDIPHDLIIG [BRR2] | 2.17 ± 0.042 | 2.95 ± 0.056 | 2.29 ± 0.063 | 2.89 ± 0.046
GEKTLSSLALVFALHKY [SMC4] | 2.57 ± 0.054 | 2.48 ± 0.066 | 1.9 ± 0.12 | 2.98 ± 0.051
LNISPFTFGLTVVQVYD [RPP0] | 1.31 ± 0.043 | 1.61 ± 0.052 | 1.55 ± 0.072 | 1.2 ± 0.044
DDSFFNETNDKKRNPSK [PRP28] | 3.16 ± 0.098 | 2.96 ± 0.1 | 3.13 ± 0.072 | 2.85 ± 0.084
RASDLRMTIRTRGRSAT [RRP43] | 2.93 ± 0.1 | 2.36 ± 0.093 | 2.22 ± 0.17 | 2.33 ± 0.11

Sequence | protein stability index (doa10∆) | protein stability index (pdr5∆) | protein stability index (san1∆) | protein stability index (ubr1∆)
AVYGPRSIRGSFTSQGT [MTR3] | 3.16 ± 0.12 | 3.2 ± 0.086 | 3.08 ± 0.098 | 3.02 ± 0.058
RENVFFQSQQRRKDTSM [RPB9] | 3.07 ± 0.083 | 3.4 ± 0.11 | 3.34 ± 0.065 | 2.75 ± 0.15
EFDEQYGTRPLVLPPVV [SNF2] | 3.08 ± 0.071 | 2.69 ± 0.063 | 2.86 ± 0.061 | 2.53 ± 0.046
VVERHLEDGDVVLFNRQ [RPO31] | 3.41 ± 0.079 | 3.32 ± 0.077 | 3.57 ± 0.069 | 3.38 ± 0.083
LIEKEIQPKITELKKKL [SMC1] | 3.02 ± 0.1 | 2.91 ± 0.089 | 2.9 ± 0.11 | 3.02 ± 0.077
GLCGAGTNNARLAQLLR [RPN1] | 2.44 ± 0.068 | 1.79 ± 0.047 | 1.4 ± 0.13 | 1.16 ± 0.042
HRWGTKKLPRKTHRGLR [RPL3] | 3.32 ± 0.11 | 3.04 ± 0.13 | 3.12 ± 0.084 | 3.34 ± 0.061
KNAVVRSKFGGDFLDFQ [ARP7] | 3 ± 0.13 | 2.57 ± 0.12 | 3.31 ± 0.094 | 3.21 ± 0.083
FNYVAVGDVSNLPYLDE [QCR2] | 3.2 ± 0.095 | 3.14 ± 0.11 | 2.98 ± 0.13 | 3.11 ± 0.06
TAAEKKERLTKEAAAIA [RPL8B] | 2.15 ± 0.072 | 2.25 ± 0.09 | 1.91 ± 0.11 | 2.33 ± 0.05
QPIVTGTSVISMKYDNG [PRE4] | 2.1 ± 0.25 | 2.69 ± 0.23 | 1.93 ± 0.15 | 2 ± 0.2
VTEMSNNANVLGGEIND [BRR2] | 3.18 ± 0.11 | 3.18 ± 0.12 | 3.51 ± 0.085 | 3.15 ± 0.064
EDDTQIVTGNLVLDLLT [IRR1] | 2.12 ± 0.055 | 2.83 ± 0.047 | 2.26 ± 0.085 | 2.26 ± 0.037
SVAEKEEIRSQIDHFKS [SWI3] | 1.73 ± 0.046 | 2.42 ± 0.084 | 2.8 ± 0.07 | 2.65 ± 0.055
PKSTAPIFSFGKQEENG [YOR098C/NUP1] | 2.24 ± 0.053 | 2.75 ± 0.069 | 2.49 ± 0.059 | 2.38 ± 0.043
VHVQLLINLKISPLMKS [SRB8] | 1.44 ± 0.058 | 1.59 ± 0.048 | 1.55 ± 0.091 | 1.44 ± 0.05
YDEVKKHWGGGILGNKA [RPL8A] | 3.16 ± 0.11 | 3.4 ± 0.089 | 3.44 ± 0.06 | 3.23 ± 0.061
LATNSLVEEFMLLANIS [DIS3] | 1.39 ± 0.095 | 1.7 ± 0.099 | 1.74 ± 0.16 | 2.37 ± 0.071
DKGAVGPNNFIWPAEDA [MED4] | 3.51 ± 0.25 | 3.43 ± 0.24 |  | 3.23 ± 0.15
KDLKHIIYYKFNKNLGK [PRP8] | 1.14 ± 0.052 | 1.28 ± 0.053 | 1.32 ± 0.11 | 1.17 ± 0.061
RAPELLLGARHYTPAVD [SSN3] | 1.67 ± 0.12 | 1.08 ± 0.13 | 1.9 ± 0.3 | 1.56 ± 0.11
AQLDGRIGVLQARMMQQ [NSL1] | 2.21 ± 0.055 | 2.46 ± 0.043 | 2.46 ± 0.056 | 2.61 ± 0.048
LKSKVIDSPELLSLIST [RPN7] | 2.48 ± 0.038 | 2.63 ± 0.045 | 2.4 ± 0.049 | 2.61 ± 0.041
QRLVTPQRLQRKRHQRA [RPS6A] | 2.64 ± 0.059 | 3.13 ± 0.05 | 3.23 ± 0.039 | 3.09 ± 0.035
IQTVVISLLALPHSPLW [YML031W/NDC1] | 1.36 ± 0.076 | 1.58 ± 0.063 | 1.36 ± 0.1 | 2 ± 0.049
AHFLSLSFTPTTVIGIR [RPN2] | 1.57 ± 0.043 | 1.56 ± 0.041 | 1.28 ± 0.083 | 1.27 ± 0.031
QAIAKNNPQVVNAITVA [SNF5] | 1.85 ± 0.039 | 2.02 ± 0.043 | 1.63 ± 0.05 | 1.61 ± 0.036

Source: the supplement of paper PMC9732359
